This is an account of results in patent US20160090401A1 (UNIVERSITY OF BRISTOL, published 2016).

Bridge positions count the residues as written; N and C are the ends. I, II: the chains in the order shown. Some results are limits rather than exact numbers.

T1: CC-Di-BI (N-terminal acetyl; C-terminal amide)
T1 construct: also called basic peptide of CC-Di-AIBI
T1 peptide: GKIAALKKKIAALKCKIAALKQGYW

T2: CC-Tri3-CC-Di-BQ (N-terminal acetyl; C-terminal amide; Cys in an asymmetric disulfide with the Cys of the trimer chain; N-terminal acetyl; C-terminal amide; Cys in an asymmetric disulfide with the Cys of the CC-Di-BQ …)
T2 peptide 1: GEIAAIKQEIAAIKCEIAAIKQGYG
T2 peptide 2: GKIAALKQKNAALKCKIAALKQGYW

T3: CC-Di-AB (N-terminal acetyl (Ac-); C-terminal amide (printed -NH))
T3 construct: also called heterodimer CC-Di-AB; heterodimeric coiled coil
T3 peptide 1: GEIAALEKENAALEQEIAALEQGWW
T3 peptide 2: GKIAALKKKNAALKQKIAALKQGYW

B1: CC-Di-AI (peptide)
peptide: Ac-GEIAALEKEIAALECEIAALEQGWW-NH2
notes: also called acidic peptide of CC-Di-AIBI
B2: CC-Di-B (peptide)
peptide: Ac-GKIAALKKKNAALKQKIAALKQGYW-NH2
notes: Free module
B3: CC-Tri3-CC-Di-AQ (other)
peptide 1: Ac-GEIAAIKQEIAAIKCEIAAIKQGYG-NH2
peptide 2: Ac-GEIAALEQENAALECEIAALEQGWW-NH2
modifications: disulfide I:15-II:15 (inferred)
B4: CC-Tri3 (peptide)
peptide: Ac-GEIAAIKKEIAAIKQEIAAIKQGYG-NH2
notes: also called homotrimer CC-Tri3; homotrimeric coiled coil

The target of one data set is T1, CC-Di-BI. Description: method not stated for this variant.
Data set [1] concerns the molecule itself. Description: CD spectroscopy of the peptide alone (no homomeric coiled coil).
The target of the data set “CC-Di-B” is B2. Description: CD-monitored thermal denaturation over a range of peptide concentrations, extrapolated to 20 °C; dissociation of the heterodimer (two-state).
The next data set concerns the target T2, CC-Tri3-CC-Di-BQ. Description: mixing with the respective partner in PBS, 50 µM; SEM.
Data set [2] deals with the molecule itself. Description: CD-monitored thermal denaturation over a range of peptide concentrations, extrapolated to 20 °C; dissociation of the homotrimer (two-state).
A further data set concerns the target T3, CC-Di-AB. Description: CD thermal melting of the mixture, the same as the average of the two independent profiles.

With B1, the “affinity relative to the CC-Di-AB parent” value with CC-Di-BI was more than 100 fold. Regarding Ac-GEIAALEKENAALEQEIAALEQGWW-NH2 (Free module) [CC-Di-A], the binding result in data set [1] is given as “no binding (tested: micromolar range)”. For the same molecule, in the data set with CC-Di-B, the Kd (as a rule, the constant that tells how readily two partners part at equilibrium) is 58.3 nM.

Turning to B2, the binding result in data set [1] is “no binding (tested: micromolar range)”. For B3, the binding result with CC-Tri3-CC-Di-BQ is “binds”. Consider B4, for which the Kd in data set [2] is 0.0399 pM. For the same molecule, the binding result with CC-Di-AB was “no binding”.
